One test addresses HLA-A*30:01. In words: IEDB peptide-MHC binding, purified MHC/direct/fluorescence; filed as Kd, often an IC50 or EC50 that approximates it; ≥ and ≤ were set here for values at or beyond the usual limits of such assays. Conditions: source organism: Rickettsia sibirica.
Test [1] addresses HLA-B*07:02. Described as above. Conditions: source organism: Rickettsia sibirica.
Another test concerns the target HLA-A*69:01. The test is described as above.
The target in the next test is HLA-B*58:01. The test is described as above.
The target of the next test is HLA-A*02:01. Described as above.
Another test concerns the target HLA-A*01:01. The description is as above.
The target of the next test is HLA-A*03:01. The test is described as above. Conditions: source organism: Rickettsia sibirica.
In test [2] the target is HLA-B*27:05. The description is as above. Conditions: source organism: Rickettsia sibirica.
The next test has as its target HLA-B*44:02. The test is described as above. Particulars: source organism: Rickettsia sibirica.
For test [3], the target named is HLA-A*26:01. The test is described as above. Particulars: source organism: Rickettsia sibirica.
For test [4], the target named is HLA-B*40:01. Described as above.
A further test has as its target HLA-A*31:01. The test is described as above.
Another test addresses HLA-B*08:01. The test is described as above. Conditions: source organism: Rickettsia sibirica.
Test [5] concerns the target HLA-B*15:01. The description is as above.
The target of a further test is HLA-A*68:23. The test can be described thus: IEDB peptide-MHC binding, purified MHC/competitive/fluorescence; filed as Kd, often an IC50 or EC50 that approximates it; ≥ and ≤ were set here for values at or beyond the usual limits of such assays. Particulars: source organism: Yersinia pseudotuberculosis IP 31758.
For a further test, the target named is HLA-B*15:42. Described as above. Conditions: source organism: Yersinia pseudotuberculosis IP 31758.
Test [6] concerns the target HLA-B*40:01. The test is described as above. Conditions: source organism: Yersinia pseudotuberculosis IP 31758.
The next test addresses HLA-B*45:06. The test is described as above. Particulars: source organism: Yersinia pseudotuberculosis IP 31758.
The target of the next test is HLA-B*83:01. The description is as above. Conditions: source organism: Yersinia pseudotuberculosis IP 31758.
Test [7] deals with HLA-B*15:01. Described as above. Particulars: source organism: Yersinia pseudotuberculosis IP 31758.
A further test addresses HLA-C*06:02. In words: IEDB peptide-MHC binding, purified MHC/direct/fluorescence; filed as Kd, often an IC50 or EC50 that approximates it; ≥ and ≤ were set here for values at or beyond the usual limits of such assays. Particulars: source organism: Yersinia pseudotuberculosis IP 31758.
The next test has as its target HLA-A*26:03. In words: IEDB peptide-MHC binding, purified MHC/competitive/fluorescence; filed as Kd, often an IC50 or EC50 that approximates it; ≥ and ≤ were set here for values at or beyond the usual limits of such assays. Conditions: source organism: Ehrlichia chaffeensis.
The target in test [8] is HLA-B*07:02. The description is as above. Conditions: source organism: Ehrlichia chaffeensis.
For test [9], the target named is HLA-B*27:05. The description is as above. Particulars: source organism: Ehrlichia chaffeensis.
For test [10], the target named is HLA-A*26:01. The description is as above. Particulars: source organism: Ehrlichia chaffeensis.
The target in the next test is HLA-A*02:06. Described as above. Conditions: source organism: Ehrlichia chaffeensis.
The next test concerns the target HLA-B*35:01. Described as above. Conditions: source organism: Ehrlichia chaffeensis.
The target in another test is HLA-B*57:01. In words: IEDB peptide-MHC binding, purified MHC/direct/fluorescence; filed as Kd, often an IC50 or EC50 that approximates it; ≥ and ≤ were set here for values at or beyond the usual limits of such assays. Conditions: source organism: Brucella abortus 2308.
Another test deals with HLA-B*18:01. The description is as above. Particulars: source organism: Brucella abortus 2308.
Another test addresses HLA-A*68:02. The description is as above. Particulars: source organism: Brucella abortus 2308.
In the next test the target is HLA-A*11:01. The test is described as above. Particulars: source organism: Brucella abortus 2308.
A further test addresses HLA-B*46:01. The test is described as above. Particulars: source organism: Brucella abortus 2308.
In the next test the target is HLA-B*48:01. The test is described as above. Particulars: source organism: Brucella abortus 2308.
The next test has as its target HLA-B*15:17. The test is described as above. Conditions: source organism: Brucella abortus 2308.
The mark [11] stands for this setting: source organism: Rickettsia sibirica.
[12] abbreviates: source organism: Brucella abortus 2308.

A value given as a limit tells only on which side of the number the result lay.

With AIKPITDQF, the dissociation constant (Kd) in the test with HLA-A*30:01 was 8.09 µM; in the test with HLA-B*07:02 [1] it was 5.83 µM; with HLA-A*69:01 (setting [11]), no less than 20 µM; with HLA-B*58:01 (setting [11]), no less than 10 µM; with HLA-A*02:01 (setting [11]), no less than 20 µM; in the test with HLA-A*01:01 (setting [11]) it was no less than 20 µM. The Kd was no less than 20 µM with HLA-A*03:01; no less than 20 µM with HLA-B*27:05 [2]; no less than 20 µM in the test with HLA-B*44:02; no less than 20 µM in the test with HLA-A*26:01 [3]; no less than 20 µM in the test with HLA-B*40:01 [4] (setting [11]); no less than 20000 nM with HLA-A*31:01 (setting [11]). Besides, the dissociation constant Kd in the test with HLA-B*08:01 and in the test with HLA-B*15:01 [5] (setting [11]) was no less than 20 µM each time.
As for RQMRASAPL, the Kd with HLA-A*68:23 is 2.4 nM; in the test with HLA-B*15:42, no less than 5 µM; with HLA-B*40:01 [6], 18.1 nM; with HLA-B*45:06, no less than 5 µM; with HLA-B*83:01 it was no less than 5 µM; with HLA-B*15:01 [7] it was 145 nM. The dissociation constant (Kd) in the test with HLA-C*06:02 is no less than 20 µM.
Consider RVYKNYDPR, for which the Kd was no less than 20 µM in the test with HLA-A*26:03; no less than 20 µM with HLA-B*07:02 [8]; 1060 nM in the test with HLA-B*27:05 [9]; no less than 20 µM in the test with HLA-A*26:01 [10]; no less than 20 µM with HLA-A*02:06; 1670 nM in the test with HLA-B*35:01. Further, the equilibrium dissociation constant (Kd) with HLA-A*69:01 (setting [12]), in the test with HLA-B*58:01 (setting [12]), with HLA-A*02:01 (setting [12]), with HLA-B*57:01, in the test with HLA-A*01:01 (setting [12]) and with HLA-B*18:01 was no less than 20 µM each time. Besides, the equilibrium dissociation constant (Kd) with HLA-A*68:02 is no less than 20 µM; in the test with HLA-B*40:01 [4] (setting [12]), no less than 20 µM; with HLA-A*31:01 (setting [12]), 51.3 nM; in the test with HLA-A*11:01 it was 101 nM; with HLA-B*46:01, no less than 20 µM; with HLA-B*15:01 [5] (setting [12]) it was no less than 20 µM. Moreover, the Kd with HLA-B*48:01 and with HLA-B*15:17 was no less than 20 µM throughout.

These data come from the Immune Epitope Database (IEDB).
